Experimental data from patent US20230051701A1 (Bristol-Myers Squibb, published 2023).
Several values for one entry are separate records, joined by “and”; a condition that tells them apart may be missing. Equal entries are not always repeated.

T1: human CD73 on cells (Calu6, NCI-H292, SK-MEL-24, human tumor cell lines, human B and T cells) (human, UniProt P21589 27-549)
T1 construct: Endogenous protein; also called endogenous CD73; cellular CD73
T1 sequence: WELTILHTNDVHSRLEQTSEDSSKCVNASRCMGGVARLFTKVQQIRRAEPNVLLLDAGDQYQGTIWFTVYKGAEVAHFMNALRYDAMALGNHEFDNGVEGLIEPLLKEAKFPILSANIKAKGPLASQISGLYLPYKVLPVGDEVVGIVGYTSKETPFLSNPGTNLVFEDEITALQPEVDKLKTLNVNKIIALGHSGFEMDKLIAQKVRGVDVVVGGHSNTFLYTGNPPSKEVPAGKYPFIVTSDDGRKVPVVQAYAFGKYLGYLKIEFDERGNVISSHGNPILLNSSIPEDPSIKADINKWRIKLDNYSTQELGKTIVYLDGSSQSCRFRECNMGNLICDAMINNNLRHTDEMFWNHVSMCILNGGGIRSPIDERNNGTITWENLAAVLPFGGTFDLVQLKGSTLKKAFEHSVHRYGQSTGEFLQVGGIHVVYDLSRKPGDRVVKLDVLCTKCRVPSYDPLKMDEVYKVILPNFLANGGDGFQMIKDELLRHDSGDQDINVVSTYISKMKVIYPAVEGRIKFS

T2: full length extracellular domain of human CD73 linked to a His tag (human, UniProt P21589 27-547, glycosylated)
T2 construct: 27-553 is 27-547 plus that tag; also called hCD73-his; CD73-his
T2 sequence: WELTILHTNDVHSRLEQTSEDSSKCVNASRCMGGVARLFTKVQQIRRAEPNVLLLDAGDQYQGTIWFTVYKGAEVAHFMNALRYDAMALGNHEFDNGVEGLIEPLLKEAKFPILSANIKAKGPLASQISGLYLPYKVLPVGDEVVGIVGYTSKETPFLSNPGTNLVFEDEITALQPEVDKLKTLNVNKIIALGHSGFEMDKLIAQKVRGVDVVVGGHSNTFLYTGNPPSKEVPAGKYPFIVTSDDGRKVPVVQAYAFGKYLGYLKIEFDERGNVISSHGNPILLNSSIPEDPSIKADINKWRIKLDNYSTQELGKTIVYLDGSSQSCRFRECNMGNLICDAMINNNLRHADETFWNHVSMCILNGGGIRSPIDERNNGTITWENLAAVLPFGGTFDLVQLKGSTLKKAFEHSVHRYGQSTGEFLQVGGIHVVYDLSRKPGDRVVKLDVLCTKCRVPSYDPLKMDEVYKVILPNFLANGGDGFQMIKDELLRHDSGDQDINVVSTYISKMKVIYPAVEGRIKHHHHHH


Columns and labels:
[1] = target: T1, human CD73 on cells (Calu6, NCI-H292, …); assay: flow cytometry, FITC-mAb, T cells of donor D329
Description: (§1) Binding of CD73.4 antibody to human B and T cells was also determined. Human blood from two donors, D316 and D329, was obtained from Immunsciences, BMS. Peripheral blood mononuclear cells (PBMC) were isolated with Lympholyte-H cell separation gradient media. […] Cells from both donors were pooled for the unstained and FMO (Fluorescence minus one) control samples.

[2] = target: T1, human CD73 on cells (Calu6, NCI-H292, …); assay: cell-based or functional assay
[3] = target: T1, human CD73 on cells (Calu6, NCI-H292, …); assay: flow cytometry, FITC-mAb, T cells of donor D316
Description: as §1

[4] = target: T1, human CD73 on cells (Calu6, NCI-H292, …); assay: flow cytometry, FITC-mAb, B cells of donor D329
Description: as §1

[5] = target: T2, full length extracellular domain of …; assay: SEC-MALS, equimolar mix 5.5 uM mAb + 5.5 uM hCD73-his, peak area
Description: The oligomeric state of CD73/antibody complexes were examined by size-exclusion chromatography coupled to an in-line multi-angle light scattering detector (SEC-MALS). Isocratic separations were performed on a Shodex PROTEIN KW-803 column connected to an Prominence Shimadzu UFLC in buffer containing 200 mM K2HPO4, 150 mM NaCl, pH 6.8, containing 0.02% Na azide (0.1 μm filtered) running at 0.5 mL/min. Samples were injected onto the column using a SIL-20AC Prominence Shimadzu autosampler, and data were obtained from three online detectors connected in series: a Prominence SPD-20AD diode array UV/vis spectrophotometer followed by a Wyatt miniDAWN™ TREOS Multi-Angle Light Scattering Detector then a Wyatt Optilab T-rEX Refractive Index Detector. Data were collected and analyzed using Astra (Wyatt) and Labsolutions (Shimadzu) software.
CD73.4 antibodies having the heavy chain constant regions set forth in Table 26 were also tested for formation of high molecular weight complexes by SEC-MALS and DLS experiments, as described in Example 11.

[6] = target: T1, human CD73 on cells (Calu6, NCI-H292, …); assay: flow cytometry, human tumor cell lines
Description: Titration binding curves were produced with CD73 antibodies on Calu6 (CD73 endogenous expressors; human pulmonary adenocarcinoma cell line), DMS114 (CD73 negative; human small cell lung cancer cell line), CHO-cynoCD73 (cynoCD73-transfected) and CHO-K1 (cynoCD73 negative), cells using Alexa Fluor® 647 Goat Anti-Human IgG (H+L) as a secondary antibody, Invitrogen Cat#A-21445, using the following method: 100000 cells were plated in 100 uL PBS+2% FBS per well and blocked for 20 min. Using a U-bottom 96-deep well plate, volumes of antibody and PBS+2% FBS were combined as dictated by Table 12 below.
An 8-point serial dilution was performed by diluting a sixth of the volume (90 uL) into 450 μL PBS+2% FBS. The cell plate was spun down for 5 minutes at 1500 rpm. 100 uL of diluted antibody was added per well of the plate. 100 uL PBS+2% FBS were added to all other wells. […] The plates were spun down at 1500 rpm for 5 min and washed in 200 uL PBS +2% FBS per well. The plates were washed again, resuspended in 200 uL 2% FBS in PBS per well and the samples were run.

Row | Binder | IC50 [1] [nM] | CD73 Inhibition EC50(nM), cAMP assay, Calu6 [2] | IC50 [3] [nM] | IC50 [4] [nM] | UV % Peak1 <12.9 min (complexes larger than 4:4 hCD73-his:mAb) [5] [%] | CD73 Inhibition S:B, cAMP assay, Calu6 [2] | EC50 [6]
1 | CD73.4-IgG2-C219S (antibody, also called CD73.4-IgG2CS; CD73.4-IgG2.3) heavy: QVQLVESGGGVVQPGRSLRLSCAASGFTFSNYGMHWVRQAPGKGLEWVAVILYDGSNKYYPDSVKGRFTISRDNSKNTLYLQMNSLRAEDTAVYYCARGGSSWYPDSFDIWGQGTMVTVSSASTKGPSVFPLAPCSRSTSESTAALGCLVKDYFPEPVTVSWNSGALTSGVHTFPAVLQSSGLYSLSSVVTVPSSNFGTQTYTCNVDHKPSNTKVDKTVERKSCVECPPCPAPPVAGPSVFLFPPKPKDTLMISRTPEVTCVVVDVSHEDPEVQFNWYVDGVEVHNAKTKPREEQFNSTFRVVSVLTVVHQDWLNGKEYKCKVSNKGLPAPIEKTISKTKGQPREPQVYTLPPSREEMTKNQVSLTCLVKGFYPSDIAVEWESNGQPENNYKTTPPMLDSDGSFFLYSKLTVDKSRWQQGNVFSCSVMHEALHNHYTQKSLSLSPG light: not shown | 0.135 | 1.56 nM and 1.78 nM | 0.18 | 0.0777 | 37 | – | –
2 | CD73.4-IgG2-C219S-IgG1.1f (antibody, 94% of the N-terminal glutamine was pyro-Q; 97% of the heavy chains lacked the C-terminal lysine, also called CD73.4-IgG2CS-IgG1.1f) heavy: QVQLVESGGGVVQPGRSLRLSCAASGFTFSNYGMHWVRQAPGKGLEWVAVILYDGSNKYYPDSVKGRFTISRDNSKNTLYLQMNSLRAEDTAVYYCARGGSSWYPDSFDIWGQGTMVTVSSASTKGPSVFPLAPCSRSTSESTAALGCLVKDYFPEPVTVSWNSGALTSGVHTFPAVLQSSGLYSLSSVVTVPSSNFGTQTYTCNVDHKPSNTKVDKTVERKSCVECPPCPAPPVAGPSVFLFPPKPKDTLMISRTPEVTCVVVDVSHEDPEVKFNWYVDGVEVHNAKTKPREEQYNSTYRVVSVLTVLHQDWLNGKEYKCKVSNKALPSSIEKTISKAKGQPREPQVYTLPPSREEMTKNQVSLTCLVKGFYPSDIAVEWESNGQPENNYKTTPPVLDSDGSFFLYSKLTVDKSRWQQGNVFSCSVMHEALHNHYTQKSLSLSPG light: not shown | 0.241 | 1.28 nM | 0.183 | 0.145 | – | 12 | 0.5 nM and 0.3 nM to 0.67 nM (2×)
